One data set concerns the target PPARg:RXRa (Homo sapiens, UniProt P37231;P19793 full;full). Put plainly: no ligand; PBM; 180 nM : 90 nM RXRa; PBS pH 7.4, 2% milk, 0.02% Triton X-100, 1 mM DTT, BSA, 0.4 mg/ml salmon testes DNA. The settings on record: tags: His kept;His cleaved; copies: 1;1; label: surface-attached array probe.
The next data set deals with RXRa (Homo sapiens, UniProt P19793). Put plainly: no ligand; PBM; 180 nM; PBS pH 7.4, 2% milk, 0.02% Triton X-100, 1 mM DTT, BSA, 0.4 mg/ml salmon testes DNA. The settings on record: tags: His cleaved; chain copies: 2; label: surface-attached array probe.
Chain of RXRa (P19793 whole entry): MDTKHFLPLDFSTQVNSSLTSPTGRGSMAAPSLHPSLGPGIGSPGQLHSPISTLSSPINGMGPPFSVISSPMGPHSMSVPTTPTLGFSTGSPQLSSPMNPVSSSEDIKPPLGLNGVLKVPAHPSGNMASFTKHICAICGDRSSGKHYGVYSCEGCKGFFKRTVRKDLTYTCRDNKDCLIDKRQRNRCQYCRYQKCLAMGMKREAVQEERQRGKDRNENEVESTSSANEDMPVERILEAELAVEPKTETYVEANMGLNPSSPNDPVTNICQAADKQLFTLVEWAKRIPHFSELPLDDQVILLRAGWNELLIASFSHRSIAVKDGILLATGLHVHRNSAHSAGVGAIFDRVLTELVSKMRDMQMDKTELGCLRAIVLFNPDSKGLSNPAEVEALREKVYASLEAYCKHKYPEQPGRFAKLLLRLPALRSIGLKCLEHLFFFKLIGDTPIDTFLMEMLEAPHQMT
A further data set concerns the target THRa:RXRa (Homo sapiens, UniProt P10827;P19793 full;full). Put plainly: no ligand; PBM; 90 nM : 90 nM RXRa; PBS pH 7.4, 2% milk, 0.02% Triton X-100, 1 mM DTT, BSA, 0.4 mg/ml salmon testes DNA. Particulars: tags: His kept;His cleaved; copies: 1;1; label: surface-attached array probe.
A further data set concerns the target FXR:RXRa (Homo sapiens, UniProt Q96RI1;P19793 full;full). In words: no ligand; PBM; 270 nM : 90 nM RXRa; PBS pH 7.4, 2% milk, 0.02% Triton X-100, 1 mM DTT, BSA, 0.4 mg/ml salmon testes DNA. The settings on record: tags: His kept;His cleaved; copies: 1;1; label: surface-attached array probe. In outline: (§1)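 Custom Agilent 4×180K protein-binding microarrays carried double-stranded probes, each with a 34-nt variable region. These regions held direct-repeat seeds, single-nucleotide variants, half-site ablations and random human genomic background sequences. Ligand-free nuclear receptor dimers were incubated on the arrays for 1 h, antibodies against each partner (one per run) detected binding, and scanned fluorescence was regression-normalized. Binding z-scores take the random background probes as reference.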

The next data set concerns the target RARg:RXRa (Homo sapiens, UniProt P13631;P19793 full;full). The description is as above. The settings on record: tags: His kept;His cleaved; copies: 1;1; label: surface-attached array probe. In outline: as §1
A further data set concerns the target LXRa:RXRa (Homo sapiens, UniProt Q13133;P19793 full;full). The description is as above. The settings on record: tags: His kept;His cleaved; copies: 1;1; label: surface-attached array probe. In outline:
as §1

The target in the next data set is RARb:RXRa (Homo sapiens, UniProt P10826;P19793 full;full). The data set is described as above. The settings on record: tags: His kept;His cleaved; copies: 1;1; label: surface-attached array probe. In outline: as §1
The next data set concerns the target RARa:RXRa (Homo sapiens, UniProt P10276;P19793 full;full). The data set is described as above. Particulars: tags: His kept;His cleaved; copies: 1;1; label: surface-attached array probe. In outline:
as §1

For another data set, the target named is PPARa:RXRa (Homo sapiens, UniProt Q07869;P19793 full;full). The description is as above. The settings on record: tags: GST kept;His cleaved; copies: 1;1; label: surface-attached array probe. In outline:
as §1

For the next data set, the target named is PXR:RXRa (Homo sapiens, UniProt O75469;P19793 full;full). Described as above. Particulars: tags: His kept;His cleaved; copies: 1;1; label: surface-attached array probe. In outline:
as §1

Another data set concerns the target LXRb:RXRa (Homo sapiens, UniProt P55055;P19793 full;full). The data set is described as above. The settings on record: tags: His kept;His cleaved; copies: 1;1; label: surface-attached array probe. In outline: as §1
The next data set addresses VDR:RXRa (Homo sapiens, UniProt P11473;P19793 full;full). The data set is described as above. The settings on record: tags: His kept;His cleaved; copies: 1;1; label: surface-attached array probe. In outline:
as §1

Chain of PPARg:RXRa (P37231 29-505, chain 1 of 2): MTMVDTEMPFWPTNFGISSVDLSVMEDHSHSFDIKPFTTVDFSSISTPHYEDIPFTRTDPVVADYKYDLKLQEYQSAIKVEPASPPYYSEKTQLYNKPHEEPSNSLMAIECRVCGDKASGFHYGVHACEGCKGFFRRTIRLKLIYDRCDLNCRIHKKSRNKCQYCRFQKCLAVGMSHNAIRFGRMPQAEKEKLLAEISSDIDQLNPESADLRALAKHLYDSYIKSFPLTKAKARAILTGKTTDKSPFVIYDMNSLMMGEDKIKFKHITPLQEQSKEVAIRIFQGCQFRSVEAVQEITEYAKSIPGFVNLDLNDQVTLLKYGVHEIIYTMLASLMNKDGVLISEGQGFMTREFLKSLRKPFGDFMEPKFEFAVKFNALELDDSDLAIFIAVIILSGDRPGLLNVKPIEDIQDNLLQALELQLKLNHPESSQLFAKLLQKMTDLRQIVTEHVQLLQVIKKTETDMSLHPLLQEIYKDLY
Chain of PPARg:RXRa (P19793 whole entry, chain 2 of 2): as the sequence (P19793 whole entry) above
Chain of PXR:RXRa (O75469 whole entry, chain 1 of 2): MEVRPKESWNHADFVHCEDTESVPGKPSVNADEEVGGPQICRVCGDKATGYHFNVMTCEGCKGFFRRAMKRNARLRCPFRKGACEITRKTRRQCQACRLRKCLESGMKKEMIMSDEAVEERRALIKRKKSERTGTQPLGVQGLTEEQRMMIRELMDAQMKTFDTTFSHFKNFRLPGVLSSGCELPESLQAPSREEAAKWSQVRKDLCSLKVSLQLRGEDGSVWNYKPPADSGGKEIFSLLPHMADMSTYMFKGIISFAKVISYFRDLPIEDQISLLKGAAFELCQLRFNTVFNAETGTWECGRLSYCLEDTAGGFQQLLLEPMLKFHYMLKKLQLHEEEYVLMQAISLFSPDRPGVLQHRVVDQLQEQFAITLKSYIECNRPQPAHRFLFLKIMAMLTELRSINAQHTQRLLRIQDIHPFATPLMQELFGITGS
Chain of PXR:RXRa (P19793 whole entry, chain 2 of 2): as the sequence (P19793 whole entry) above
Chain of FXR:RXRa (Q96RI1 whole entry, chain 1 of 2): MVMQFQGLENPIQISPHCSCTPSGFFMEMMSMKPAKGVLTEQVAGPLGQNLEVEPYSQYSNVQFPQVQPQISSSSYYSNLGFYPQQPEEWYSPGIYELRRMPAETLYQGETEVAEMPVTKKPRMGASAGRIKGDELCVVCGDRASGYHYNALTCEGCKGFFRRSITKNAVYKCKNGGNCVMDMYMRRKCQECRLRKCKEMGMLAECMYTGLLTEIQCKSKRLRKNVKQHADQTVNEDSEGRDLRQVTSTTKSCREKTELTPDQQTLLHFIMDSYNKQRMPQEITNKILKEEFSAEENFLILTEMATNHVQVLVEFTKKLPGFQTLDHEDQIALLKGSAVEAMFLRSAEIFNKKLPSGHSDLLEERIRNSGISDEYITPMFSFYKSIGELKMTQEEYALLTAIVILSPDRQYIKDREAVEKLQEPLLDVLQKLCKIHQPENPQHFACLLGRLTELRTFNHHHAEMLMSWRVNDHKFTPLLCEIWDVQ
Chain of FXR:RXRa (P19793 whole entry, chain 2 of 2): as the sequence (P19793 whole entry) above
Chain of THRa:RXRa (P10827 other isoform, or with tags, fused parts or gaps, chain 1 of 2): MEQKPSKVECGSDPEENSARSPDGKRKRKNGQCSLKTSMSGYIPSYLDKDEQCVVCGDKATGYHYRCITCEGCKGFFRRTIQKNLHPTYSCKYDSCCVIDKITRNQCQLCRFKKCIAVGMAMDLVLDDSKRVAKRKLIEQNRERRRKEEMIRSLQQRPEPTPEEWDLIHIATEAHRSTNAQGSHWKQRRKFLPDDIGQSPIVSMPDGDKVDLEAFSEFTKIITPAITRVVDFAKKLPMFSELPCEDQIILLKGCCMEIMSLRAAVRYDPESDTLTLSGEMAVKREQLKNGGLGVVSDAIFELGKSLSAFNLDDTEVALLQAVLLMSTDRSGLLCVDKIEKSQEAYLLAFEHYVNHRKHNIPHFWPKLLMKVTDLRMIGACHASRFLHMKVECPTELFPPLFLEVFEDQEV
Chain of THRa:RXRa (P19793 whole entry, chain 2 of 2): as the sequence (P19793 whole entry) above

B1: NRC3_wobSeed27_DR1_A12T_o1 (dsDNA)
DNA 1: GCACTCGGAGGTCAAAGGTCAGAGCTACGCCAGTGAGCGATTGACAGCGTAGAATGAAGG
DNA 2: CCTTCATTCTACGCTGTCAATCGCTCACTGGCGTAGCTCTGACCTTTGACCTCCGAGTGC
Consider B1, for which the binding signal is 11.6 PBM z-score against 500 random probes with PPARg:RXRa; 10.9 PBM z-score against 500 random probes with RXRa; 4.83 PBM z-score against 500 random probes in the data set with THRa:RXRa; 8.54 PBM z-score against 500 random probes with FXR:RXRa; 9.09 PBM z-score against 500 random probes with RARg:RXRa; 7.5 PBM z-score against 500 random probes with LXRa:RXRa. In addition, the binding signal with RARb:RXRa was 5.85 PBM z-score against 500 random probes; in the data set with RARa:RXRa, 9.37 PBM z-score against 500 random probes; with PPARa:RXRa it was 7.2 PBM z-score against 500 random probes; with PXR:RXRa, 7.52 PBM z-score against 500 random probes; in the data set with LXRb:RXRa, 6.9 PBM z-score against 500 random probes; in the data set with VDR:RXRa it was 7.02 PBM z-score against 500 random probes.

B2: NRC3_wobSeed42_DR1_C19T_o1 (dsDNA)
DNA 1: GCTATACAGGGTCAAAGGTCAGAGTACGAATGTCGAGCGATTGACAGCGTAGAATGAAGG
DNA 2: CCTTCATTCTACGCTGTCAATCGCTCGACATTCGTACTCTGACCTTTGACCCTGTATAGC
Turning to B2, the binding signal was 12.3 PBM z-score against 500 random probes with PPARg:RXRa; 10.7 PBM z-score against 500 random probes with RXRa; 4.83 PBM z-score against 500 random probes in the data set with THRa:RXRa; 8.5 PBM z-score against 500 random probes with FXR:RXRa; 8.67 PBM z-score against 500 random probes in the data set with RARg:RXRa; 7.52 PBM z-score against 500 random probes with LXRa:RXRa. Moreover, the binding signal in the data set with RARb:RXRa was 5.62 PBM z-score against 500 random probes; with RARa:RXRa it was 9.11 PBM z-score against 500 random probes; with PPARa:RXRa it was 7.46 PBM z-score against 500 random probes; with PXR:RXRa it was 7.29 PBM z-score against 500 random probes; with LXRb:RXRa, 7.29 PBM z-score against 500 random probes; with VDR:RXRa, 7.15 PBM z-score against 500 random probes.

The record behind these values is publication PMC6555819, “Comprehensive study of nuclear receptor DNA binding provides a revised framework for understanding receptor specificity”.
